The text below walks through data of patent US20090092581A1.

Where “and” joins values, the source holds several entries; their conditions need not be identical. Identical values can stand only once.

The target of test [1] is T1, Type I IFN receptor on iLite human IFN-α gene-reporter cells (human) (UniProt P17181).
T1 sequence (looked up) 1: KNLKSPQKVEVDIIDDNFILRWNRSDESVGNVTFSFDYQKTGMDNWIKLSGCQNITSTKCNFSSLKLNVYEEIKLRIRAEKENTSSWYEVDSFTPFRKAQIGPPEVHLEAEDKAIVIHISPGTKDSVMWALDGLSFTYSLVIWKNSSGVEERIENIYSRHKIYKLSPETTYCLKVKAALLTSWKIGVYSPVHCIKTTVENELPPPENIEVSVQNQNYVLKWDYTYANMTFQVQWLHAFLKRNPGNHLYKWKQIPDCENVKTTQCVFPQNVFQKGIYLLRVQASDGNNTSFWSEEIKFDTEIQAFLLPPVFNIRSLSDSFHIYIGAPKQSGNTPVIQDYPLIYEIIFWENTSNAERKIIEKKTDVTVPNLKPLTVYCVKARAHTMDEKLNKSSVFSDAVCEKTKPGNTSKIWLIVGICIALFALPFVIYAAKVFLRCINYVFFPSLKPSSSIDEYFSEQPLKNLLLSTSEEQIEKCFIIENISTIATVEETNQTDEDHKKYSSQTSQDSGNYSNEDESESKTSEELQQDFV
T1 sequence (looked up) 2: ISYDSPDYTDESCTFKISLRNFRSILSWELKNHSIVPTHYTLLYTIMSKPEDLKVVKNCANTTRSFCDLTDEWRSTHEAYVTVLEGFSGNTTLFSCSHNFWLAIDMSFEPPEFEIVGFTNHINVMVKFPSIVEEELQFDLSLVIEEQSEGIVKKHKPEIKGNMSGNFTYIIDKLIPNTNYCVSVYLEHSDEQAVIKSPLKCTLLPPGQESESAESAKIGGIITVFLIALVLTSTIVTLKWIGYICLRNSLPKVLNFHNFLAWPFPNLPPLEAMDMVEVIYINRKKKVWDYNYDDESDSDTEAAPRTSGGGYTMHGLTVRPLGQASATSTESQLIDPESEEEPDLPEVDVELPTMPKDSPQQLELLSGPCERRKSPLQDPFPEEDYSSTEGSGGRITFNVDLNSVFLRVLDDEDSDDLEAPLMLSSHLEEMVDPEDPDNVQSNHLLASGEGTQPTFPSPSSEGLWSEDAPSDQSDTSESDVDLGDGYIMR
The test is described as follows: cell-based or functional assay.

Test [2] deals with Cynomolgus IFN-α protein SEQ ID 42, expressed in Vero tissue culture supernatant (Cynomolgus (Macaca fascicularis)). The experiment in a line: ELISA kit PBL #41105 on Vero supernatant; read against human IFN-α2a standard curve; unit not given.
Test [3] addresses Cynomolgus IFN-α protein SEQ ID 50, expressed in Vero tissue culture supernatant (Cynomolgus (Macaca fascicularis)). The test is described as above.
Test [4] has as its target Cynomolgus IFN-α protein SEQ ID 62, expressed in Vero tissue culture supernatant (Cynomolgus (Macaca fascicularis)). The description is as above.
Test [5] addresses Cynomolgus IFN-α protein SEQ ID 60, expressed in Vero tissue culture supernatant (Cynomolgus (Macaca fascicularis)). Described as above.
Test [6] deals with Cynomolgus IFN-α protein SEQ ID 66, expressed in Vero tissue culture supernatant (Cynomolgus (Macaca fascicularis)). Described as above.
The target of test [7] is Cynomolgus IFN-α protein SEQ ID 46, expressed in Vero tissue culture supernatant (Cynomolgus (Macaca fascicularis)). The description is as above.
In test [8] the target is Cynomolgus IFN-α protein SEQ ID 58, expressed in Vero tissue culture supernatant (Cynomolgus (Macaca fascicularis)). The description is as above.
Test [9] addresses Cynomolgus IFN-α protein SEQ ID 56, expressed in Vero tissue culture supernatant (Cynomolgus (Macaca fascicularis)). Described as above.
Test [10] concerns the target Cynomolgus IFN-α protein SEQ ID 54, expressed in Vero tissue culture supernatant (Cynomolgus (Macaca fascicularis)). The experiment in a line: ELISA kit PBL #41105 on Vero supernatant; read against human IFN-α2a standard curve; unit not given; first of two values. Background: An ELISA detects its analyte on a solid surface through an enzyme-linked reagent.
The target is the same in test [11]. The experiment in a line: ELISA kit PBL #41105 on Vero supernatant; read against human IFN-α2a standard curve; unit not given; second of two values.

In [1], “Cynomolgus IFN-α protein SEQ ID 58, expressed in Vero tissue culture supernatant (from UniProt P01570 24-189) (ligand)” came in with a % Neutralization of Luciferase Induction by anti-Type I IFN Receptor Antibody (25 µg/mL) greater than 99% and a Luciferase Induction Activity (U/mL) of 8950 U/mL.

On to “Human IFN-α Multi-Subtype ELISA kit, PBL # 41105 (kit antibodies) (antibody)”, for which the ELISA estimate of IFN-α protein level in tissue culture supernatant in test [2] is 287 and 566; in [3] it was greater than 1120; in test [4] it was 75 and 95; in test [5], > 651 and 1000; in test [6], > 651 and 1500; in test [7] it was 187 and 123. In addition, the ELISA estimate of IFN-α protein level in tissue culture supernatant in test [8] is greater than 1120; in test [9], 289 and 414; in [10], 8; in test [11], 8.

In test [1], “Cynomolgus IFN-α protein SEQ ID 60, expressed in Vero tissue culture supernatant (from UniProt P32881 24-189) (ligand)” had a % Neutralization of Luciferase Induction by anti-Type I IFN Receptor Antibody (25 µg/mL) greater than 99% and a Luciferase Induction Activity (U/mL) of 48900 U/mL.

In [1], “Cynomolgus IFN-α protein SEQ ID 62, expressed in Vero tissue culture supernatant (from UniProt P01571 24-189) (ligand)” registered a % Neutralization of Luciferase Induction by anti-Type I IFN Receptor Antibody (25 µg/mL) greater than 99% and a Luciferase Induction Activity (U/mL) of 16000 U/mL.

“Cynomolgus IFN-α protein SEQ ID 46, expressed in Vero tissue culture supernatant (from UniProt P01571 24-189) (ligand)”: in test [1], the % Neutralization of Luciferase Induction by anti-Type I IFN Receptor Antibody (25 µg/mL) was greater than 99% and the Luciferase Induction Activity (U/mL) was 2700 U/mL.

With “Cynomolgus IFN-α protein SEQ ID 42, expressed in Vero tissue culture supernatant (from UniProt P01571 24-189) (ligand)”, in test [1], the % Neutralization of Luciferase Induction by anti-Type I IFN Receptor Antibody (25 µg/mL) was greater than 99% and the Luciferase Induction Activity (U/mL) is 36700 U/mL.

As for “Cynomolgus IFN-α protein SEQ ID 54, expressed in Vero tissue culture supernatant (from UniProt P01568 24-188) (ligand)”, in [1], the % Neutralization of Luciferase Induction by anti-Type I IFN Receptor Antibody (25 µg/mL) is greater than 99% and the Luciferase Induction Activity (U/mL) turned out to be 11600 U/mL.

In [1], “Cynomolgus IFN-α protein SEQ ID 66, expressed in Vero tissue culture supernatant (from UniProt P01563 24-188) (ligand)” gave a % Neutralization of Luciferase Induction by anti-Type I IFN Receptor Antibody (25 µg/mL) greater than 99% and a Luciferase Induction Activity (U/mL) of 6630 U/mL.

B1: Cynomolgus IFN-α protein SEQ ID 52, expressed in Vero tissue culture supernatant (ligand)
chain: MALSFSLLMAVVVLSYKSICSLGCDLPQTHSLGHRRALILLAQMQRISLPSCLKDRHDFAFLQEFDGNQFQKAQAMSVLHEMIQQTFNLLSTKDSSAAWDETLLDKFYIELFQQLNDLEACVIQEAGVEETPLMNEDSILAVRKYFQRITLYLTEKKYSPCAWEVVRAEIMRSLSFSTNLQKRLGRKD
For the molecule B1, in test [1], the % Neutralization of Luciferase Induction by anti-Type I IFN Receptor Antibody (25 µg/mL) was greater than 99% and the Luciferase Induction Activity (U/mL) turned out to be 515 U/mL.

B2: Cynomolgus IFN-α protein SEQ ID 48, expressed in Vero tissue culture supernatant (ligand)
chain: MALSFSLLMAVVVLSYKSICSLGCDPPRTHSLGHRRALILLAQMERISPFSCLKDRCDFAFPQEEFDGNQFQKAQAMSVLHEMIQQTFNLFSTKDSSAAWEQNLLEKFSAELYQQLNDLKACVIAEPGMEETLLMNEDSILAVKKYFQRITLYLTEKKYSPCAWEVVRAEIMRSLSFSTNLQKRLRRKD
In [1], B2 showed a % Neutralization of Luciferase Induction by anti-Type I IFN Receptor Antibody (25 µg/mL) greater than 99% and a Luciferase Induction Activity (U/mL) of 2170 U/mL.

B3: Cynomolgus IFN-α protein SEQ ID 50, expressed in Vero tissue culture supernatant (ligand)
chain: CNPSQTHNMNNRRTLMLMAQMRRISPFSCLKDRNDFEFPQEEFDGNQFQNTQAISVLHEMMQQTFNLFSTKDSSAAWDETLLDKFYIELFQQLNDLEACVIQEAGVEETPLMNEDSILAVRKYFQRITLYLMEKKYSPCAWEVVRAEIMRSLSFSTNLQKRLRRKD
With B3, in test [1], the % Neutralization of Luciferase Induction by anti-Type I IFN Receptor Antibody (25 µg/mL) was greater than 99% and the Luciferase Induction Activity (U/mL) amounted to 8040 U/mL.

B4: Cynomolgus IFN-α protein SEQ ID 56, expressed in Vero tissue culture supernatant (ligand)
chain: CDLPQTHSLGHRRALILLAQMGRISPFSCLKDRHDFGFPQEEFDGNQFQKAQAMSVLHEMIQQTFNLFSTKDSSAAWEQNLLEKFSAELYQQLNDLKACVIAEPGMEDTPLMNEDSILAVKKYFQRITLYLTEKKYSPCAWEVVRAEIMRSLSFSTNLQKRLRRKD
In test [1], B4 returned a % Neutralization of Luciferase Induction by anti-Type I IFN Receptor Antibody (25 µg/mL) greater than 99% and a Luciferase Induction Activity (U/mL) of 822 U/mL.

B5: Cynomolgus IFN-α protein SEQ ID 44, expressed in Vero tissue culture supernatant (ligand)
chain: CDLPQTHSLGHRRALILLAQMGRISPFSCLKDRRDFAFPQEEFDGNQFQKAQAMSVLHEMIQQTFNLFSTKDSSAAWEQNLLEKFSAELYQQLNDLKACVIAEPGMEDTPLMNEDSILAVKKYFQRITLYLTEKKYSPCAWEVVRTEIMRSLSFSTNLQKRLRRKD
For B5, in test [1], the % Neutralization of Luciferase Induction by anti-Type I IFN Receptor Antibody (25 µg/mL) was greater than 99% and the Luciferase Induction Activity (U/mL) amounted to 2830 U/mL.
